Test results as given in patent US20240115611A1 (KITE PHARMA, published 2024).

T1: CD20 (human CD20) (human, UniProt P11836 1-297)
T1 construct: whole, on cells; The cell line for each value is named under assay
T1 sequence (looked up): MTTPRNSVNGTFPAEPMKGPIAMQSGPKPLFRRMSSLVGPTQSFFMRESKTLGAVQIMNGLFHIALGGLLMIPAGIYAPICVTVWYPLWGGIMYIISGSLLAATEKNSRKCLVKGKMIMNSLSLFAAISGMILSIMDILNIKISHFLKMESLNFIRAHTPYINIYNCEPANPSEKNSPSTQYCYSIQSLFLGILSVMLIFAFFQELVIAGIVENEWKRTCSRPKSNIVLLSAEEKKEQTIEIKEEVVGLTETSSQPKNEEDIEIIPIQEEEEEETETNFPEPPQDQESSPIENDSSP


How the values were obtained:
CD20 (human CD20) [1] = target: T1, CD20 (human CD20); test: flow cytometry, purified IgG at 10 nM on Raji cells (CD20+), FITC-LC detection, ratio over negative control
Protocol: (§1) To determine cell binding by exemplary heavy chain variable domains and light chain variable domains of the present disclosure, purified IgGs were characterized for cell binding at a concentration of 10 nM by flow cytometry. Antibodies were incubated with CHO-S cells overexpressing CD20, Raji, and Namalwa CD20+ cell lines; and with EoL-1 and CHO-S CD20-cell lines. FITC-LC was used to detect IgGs. The ratio of binding over negative controls was calculated for each antibody.

CD20 (human CD20) [2] = target: T1, CD20 (human CD20); test: flow cytometry, purified IgG at 10 nM on CHO-S cells overexpressing CD20, FITC-LC detection, ratio over negative control
Protocol: as §1

CD20 (human CD20) [3] = target: T1, CD20 (human CD20); test: flow cytometry, purified IgG at 10 nM on Namalwa cells (CD20+), FITC-LC detection, ratio over negative control
Protocol: as §1

Row | Binder | Raji Cell Binding FON (Fold Over Negative) (CD20 (human CD20) [1]) | CHO-CD20 Cell Binding FOB (Fold Over Background) (CD20 (human CD20) [2]) | Namalwa Cell Binding FON (Fold Over Negative) (CD20 (human CD20) [3])
1 | Ab8 (Exemplary Antibody Sequences 8), anti-CD20 antibody (antibody, V domains shown) VH: QVQLQQWGAGLLKPSETLSLTCAVYGGSFSRYVWSWIRQPPGKGLEWIGEIDSSGKTNYNPSLKSRVTISVDTSKNQFSLKLSSVTAADTAVYYCARVRYDSSDSYYYSYDYGMDVWGQGTTVTVSS VL: not shown | 562 fold | 3830 fold | 10 fold
2 | Ab9 (Exemplary Antibody Sequences 9), anti-CD20 antibody (antibody, V domains shown) VH: QVQLQQWGAGLLKPSETLSLTCAVYGGSFSGYAWSWIRQPPGKGLEWIGEIDHRGFTNYNPSLKSRVTISVDTSKNQFSLKLSSVTAADTAVYYCARVRYDSSDSYYYSYDYGMDVWGQGTTVTVSS VL: not shown | 562 fold | 3620 fold | 11 fold
3 | Ab7 (Exemplary Antibody Sequences 7), anti-CD20 antibody (antibody, V domains shown) VH: QVQLQQWGAGLLKPSETLSLTCAVYGGSFEKYYWSWIRQPPGKGLEWIGEIYHSGLTNYNPSLKSRVTISVDTSKNQFSLKLSSVTAADTAVYYCARVRYDSSDSYYYSYDYGMDVWGQGTTVTVSS VL: not shown | 549 fold | 4080 fold | 11 fold
4 | Ab1 (Exemplary Antibody Sequences 1), anti-CD20 antibody (antibody, V domains shown) VH: QVQLQQWGAGLLKPSETLSLTCAVYGGSFSGYYWSWIRQPPGKGLEWIGEIDHSGSTNYNPSLKSRVTISVDTSKNQFSLKLSSVTAADTAVYYCARGGGSWYSNWFDPWGQGTMVTVSS VL: DIQMTQSPSTLSASVGDRVTITCRASQSISSWLAWYQQKPGKAPKLLIYDASSLESGVPSRFSGSGSGTEFTLTISSLQPDDFATYYCQQDRSLPPTFGGGTKVEIK | 266 fold | 813 fold | 12 fold
5 | Ab3 (Exemplary Antibody Sequences 3), anti-CD20 antibody (antibody, V domains shown) VH: QLQLQESGPGLVKPSETLSLTCTVSGGSISSSSYYWGWIRQPPGKGLEWIGSIYYSGSTYYNPSLKSRVTISVDTSKNQFSLKLSSVTAADTAVYYCARETDYSSGMGYGMDVWGQGTTVTVSS VL: DIQMTQSPSSLSASVGDRVTITCRASQSINSYLNWYQQKPGKAPKLLIYAASSLQSGVPSRFSGSGSGTDFTLTISSLQPEDFATYYCQQSLADPFTFGGGTKVEIK | 316 fold | 2000 fold | 16 fold
6 | Ab6 (Exemplary Antibody Sequences 6), anti-CD20 antibody (antibody, V domains shown) VH: QITLKESGPTLVKPTQTLTLTCTFSGFSLDTEGVGVGWIRQPPGKALEWLALIYFNDQKRYSPSLKSRLTITKDTSKNQVVLTMTNMDPVDTAVYYCARDTGYSRWYYGMDVWGQGTTVTVSS VL: DIQMTQSPSSVSASVGDRVTITCRASQGISSWLAWYQQKPGKAPKLLIYAASSLQSGVPSRFSGSGSGTDFTLTISSLQPEDFATYYCQQAYAYPITFGGGTKVEIK | 13 fold | 2520 fold | 2 fold
7 | Ab5 (Exemplary Antibody Sequences 5), anti-CD20 antibody (antibody, V domains shown) VH: QVQLQESGPGLVKPSETLSLTCTVSGGSISSPDHYWGWIRQPPGKGLEWIGSIYASGSTFYNPSLKSRVTISVDTSKNQFSLKLSSVTAADTAVYYCARETDYSSGMGYGMDVWGQGTTVTVSS VL: DIQMTQSPSSLSASVGDRVTITCRASQSINSYLNWYQQKPGKAPKLLIYAASSLQSGVPSRFSGSGSGTDFTLTISSLQPEDFATYYCQQSLADPFTFGGGTKVEIK | 185 fold | 2480 fold | 17 fold
8 | Ab10 (Exemplary Antibody Sequences 10), anti-CD20 antibody (antibody, V domains shown) VH: QVQLQQWGAGLLKPSETLSLTCAVYGGSFQKYYWSWIRQPPGKGLEWIGEIDTSGFTNYNPSLKSRVTISVDTSKNQFSLKLSSVTAADTAVYYCARVGRYSYGYYITAFDIWGQGTTVTVSS VL: not shown | 186 fold | 3160 fold | 4 fold
9 | Ab2 (Exemplary Antibody Sequences 2), anti-CD20 antibody (antibody, V domains shown) VH: QVQLQQWGAGLLKPSETLSLTCAVYGGSFSGIHWNWIRQPPGKGLEWIGDIDTSGSTNYNPSLKSRVTISVDTSKNQFSLKLSSVTAADTAVYYCARLGQESATYLGMDVWGQGTTVTVSS VL: not shown | 101 fold | 2790 fold | 3 fold
10 | Ab4 (Exemplary Antibody Sequences 4), anti-CD20 antibody (antibody, V domains shown) VH: QVQLVQSGAEVKKPGASVKVSCKASGYTFKEYGISWVRQAPGQGLEWMGWISAYSGHTYYAQKLQGRVTMTTDTSTSTAYMELRSLRSDDTAVYYCARGPHYDDWSGFIIWFDPWGQGTLVTVSS VL: not shown | 479 fold | 3620 fold | 19 fold
